The results in this text go back to patent publication US20230183352A1 (published 2023).

Residue numbers refer to the chain shown, from its start.

One may read the EC50 as the concentration at which the effect is half-maximal. By IC50 is commonly meant the concentration that gives 50% inhibition. Usually Kd stands for the constant that tells how readily two partners part at equilibrium. In general, koff refers to the rate constant with which the complex falls apart. The kon is the second-order rate constant of association.

The target in experiment [1] is T1, Claudin 18.2 (CLDN18.2), expressed on CHOS-CLDN 18.2 / HEK293-CLDN 18.2 / HCC827-CLDN 18.2 cells (human, UniProt P56856-2 1-261).
T1 construct: whole, on cells; The species is not repeated for the CHOS-CLDN 18.2 cells; also called claudin-18A2
In words: FACS, CHOS-CLDN18.2 cells, 1.250 µg/ml. On the technique in general: A flow cytometer gives signals particle by particle.

For experiment [2], the target named is T1, Claudin 18.2 (CLDN18.2), expressed on …. Briefly: cell-based or functional assay.
The target is the same in experiment [3]. Briefly: FACS, CHOS-CLDN18.2 cells.
Experiment [4] shares this target. Briefly: FACS, CHOS-CLDN18.2 cells, 0.078 µg/ml.
Experiment [5] has the same target. Briefly: FACS, CHOS-CLDN18.2 cells, 10 µg/ml.
For experiment [6] the target is unchanged. In words: FACS, MFI on CHOS-CLDN18.2 over MFI on CHOS-CLDN18.1, 10 µg/ml.
The target is the same in experiment [7]. Briefly: FACS, CHOS-CLDN18.2 cells, 5 µg/ml.
For experiment [8] the target is unchanged. Briefly: FACS, CHOS-CLDN18.2 cells, 20 µg/ml.
Experiment [9] has the same target. Briefly: FACS, CHOS-CLDN18.2 cells, 0.005 µg/ml.
The target is the same in experiment [10]. In words: FACS, CHOS-CLDN18.2 cells, 0.020 µg/ml.
The target is the same in experiment [11]. In words: FACS, CHOS-CLDN18.2 cells, 0 µg/ml (background).
The target is the same in experiment [12]. In words: FACS, CHOS-CLDN18.2 cells, 0.313 µg/ml.
The target in experiment [13] is T2, PD-L1 Protein, Cynomolgus, Recombinant (His Tag) (cynomolgus, UniProt G7PSE7 19-239).
T2 construct: Bought protein; also called QPP10.1; cynoPD-L1; not shown: His tag
T2 sequence (G7PSE7 entry or part of it): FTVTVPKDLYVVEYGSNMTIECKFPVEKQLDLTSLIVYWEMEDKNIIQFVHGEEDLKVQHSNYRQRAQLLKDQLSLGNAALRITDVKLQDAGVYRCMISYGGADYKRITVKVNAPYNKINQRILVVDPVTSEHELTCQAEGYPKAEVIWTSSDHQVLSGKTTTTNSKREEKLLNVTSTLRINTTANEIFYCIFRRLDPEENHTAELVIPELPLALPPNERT
In words: SPR, Biacore T200, antibody captured. On the technique in general: Surface plasmon resonance follows binding to a sensor surface in real time, without labels.

The target of experiment [14] is T3, Biotin QP004.3 (biotin-PDL1-FC) (human, UniProt Q9NZQ7 19-238, limits assumed, biotinylated (sites not given)). In words: PD-L1 binding ELISA, antibody coated, biotin-PDL1-FC titrated.
T3 sequence (Q9NZQ7 19-238 limits assumed): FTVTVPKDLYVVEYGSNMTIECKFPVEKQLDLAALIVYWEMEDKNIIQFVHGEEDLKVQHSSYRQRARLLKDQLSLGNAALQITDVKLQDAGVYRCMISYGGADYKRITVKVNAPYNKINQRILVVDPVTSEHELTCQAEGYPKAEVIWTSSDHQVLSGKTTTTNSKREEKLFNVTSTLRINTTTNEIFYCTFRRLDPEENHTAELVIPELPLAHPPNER
Experiment [15] addresses T3, Biotin QP004.3 (biotin-PDL1-FC). In words: PD-L1/PD-1 blocking ELISA, PD1-FC coated; row labelled EC50; competitor PD1-FC. A general note: In an ELISA, binding on a coated surface is turned into a signal by an enzyme label.
The target in experiment [16] is T4, PD-L1 Protein, Human, Recombinant (His Tag) (human, UniProt Q9NZQ7 19-239).
T4 construct: Bought protein; also called QPP09.1; SinoBiologic 10084-H08H
T4 sequence (Q9NZQ7 19-239 limits assumed): as the sequence (G7PSE7 entry or part of it) above, with T33A, S34A, N62S, Q68R, R82Q, L173F, A185T, I192T, L215H counted along it
Briefly: SPR Biacore T200, antibody captured, PD-L1 His as analyte, 1:1 binding.

Experiment [17] concerns the target T5, PD-L1 Protein, Cynomolgus, Recombinant (His Tag) (cynomolgus).
T5 construct: Bought protein; also called QPP10.1; SinoBiologic 90251-C08H
The description is as above.

B1: QP14371433 (antibody, human IgG1, kappa, V domains shown)
VH: EVQLVESGGGLVKPGGSLRLSCAASGFTFSNYAMSWVRQAPGKGLEWVASIISGGRTYYLDSEKGRFTISRDNAKNSLYLQMNSLRAEDTAVYYCTRIYYGNSFDYWGQGTLVTVSS
VL: DIVMTQSPDSLAVSLGERATINCKSSQSLLNSGNQKNYLTWYQQKPGQPPKLLIYWASTRESGVPDRFSGSGSGTDFTLTISSLQAEDVAVYYCQNDYSYPFTFGQGTKLEIKR
notes: Humanized from QP190191; also called QP14331437
B1 registered an FACS reading in [1] of 133000. Besides, in [2], the “EC50 of killing, ADCC (PBMC, HEK293-CLDN18.2 cells)” value amounted to 0.0162 µg/mL; the “Killing percentage, ADCC (PBMC, HEK293-CLDN18.2 cells), 0 µg/ml” value is 9.02%; the “Killing percentage, ADCC (PBMC, HEK293-CLDN18.2 cells), 0.0001024 µg/ml” value worked out at 8.31%; the “Killing percentage, ADCC (PBMC, HEK293-CLDN18.2 cells), 0.000512 µg/ml” value turned out to be 10.5%. Besides, in experiment [2], the “Killing percentage, ADCC (PBMC, HEK293-CLDN18.2 cells), 0.00256 µg/ml” value amounted to 13.3%; the “Killing percentage, ADCC (PBMC, HEK293-CLDN18.2 cells), 0.0128 µg/ml” value was 31.3%; the “Killing percentage, ADCC (PBMC, HEK293-CLDN18.2 cells), 0.064 µg/ml” value is 41.5%; the “Killing percentage, ADCC (PBMC, HEK293-CLDN18.2 cells), 0.32 µg/ml” value was determined as 49.6%. Further, in experiment [2], the “Killing percentage, ADCC (PBMC, HEK293-CLDN18.2 cells), 1.6 µg/ml” value turned out to be 56.4%; the “Killing percentage, ADCC (PBMC, HEK293-CLDN18.2 cells), 8 µg/ml” value came to 53.8%; the “Killing percentage, ADCC (PBMC, HEK293-CLDN18.2 cells), 40 µg/ml” value came out at 52.3%. In [3], this molecule showed an EC50 of 0.36 µg/mL and a max of 174000. Besides, the FACS reading in [4] came to 17700. In experiment [5], the MFI turned out to be 433000. Moreover, the “CLDN18.2/CLDN18.1 (MFI ratio)” value in [6] is 448. The same molecule showed an FACS reading in experiment [7] of 174000. Besides, in experiment [8], the FACS reading was determined as 115000. This molecule registered an FACS reading in experiment [9] of 3730. The molecule also showed an FACS reading in [10] of 10800. The same molecule came in with an FACS reading in experiment [11] of 754. In addition, the FACS reading in experiment [12] was 65900.

B2: QP322 (Fc fusion)
chain: EVQLLESGGGLVQPGGSLRLSCAASGFTYGTYAMSWFRQAPGKGREGVACIDIYGRASYTDPVKGRFTISQDNSKNTLYLQMNSLKAEDTAVYYCAARDFGYCTASWVHEGFSRYWGQGTLVTVSS
notes: Humanized from QP1162; also called 1162-V3; humanized nanobody QP322; not shown: human IgG1-FC constant region fused to the C terminal of the VHH
Regarding B2, the binding result in [13] was “binds”.

B3: QP322 (Fc fusion)
chain: B2 chain
notes: Humanization design of QP1162; VHH at the N-terminal of FC; also called 1162-V3; QD322; not shown: human IgG1-FC constant region fused to the C terminal of the VHH
B3: in experiment [14], a half-maximal response (EC50) required 0.00753 µg/mL. This molecule yielded an IC50 in experiment [15] of 5.12 nM. Moreover, in [16], the dissociation constant Kd amounted to 2.37 nM, the koff turned out to be 0.00311 s⁻¹ and the association rate constant (kon) came to 1.31e+06 M⁻¹ s⁻¹. Moreover, in [17], the dissociation constant Kd turned out to be 5.39 nM, the koff was found to be 0.00354 s⁻¹ and the on-rate (kon) was 657000 M⁻¹ s⁻¹.

B4: QP325 (Fc fusion)
chain: B2 chain with R45L, A57T, K86R
notes: Humanized from QP1166; also called 1166-V3; humanized antibody QP325; not shown: human IgG1-FC constant region fused to the C terminal of the VHH
On to B4, for which the binding result in experiment [13] is “binds”.

B5: QP1162 (VHH)
VHH: B2 chain with E1Q, L5V, L11S, P14S, G44E, S74A, A87P, V92M, L121Q
notes: also called nanobody QP1162; camel nanobody QP1162
As to B5, the binding result in [13] is listed as “binds”.
